In article PMC3681735:

Biological target: NtRPT6-GFP (Nicotiana tabacum) (UniProt L7UU40)

“XopJ-myc (from UniProt A0AB38E6N7 1-316) (natural protein)” showed a proteasome activity (breakdown of Suc-LLVY-AMC) in total extracts of N. benthamiana leaves transiently expressing XopJ-myc, against the empty vector control of 40%.
